# Source: patent publication US20240344028A1, “Serum-free media for producing adipocytes for animal consumption” (Mosa Meat B.V., priority 2021, published 2024)
# B1: BMP4: Recombinant Human BMP-4 (E. coli derived), 120-05ET from Peprotech (protein, UniProt P12644 293-408, looked up)
# Bone morphogenetic protein 4: SPKHHSQRARKKNKNCRRHSLYVDFSDVGWNDWIVAPPGYQAFYCHGDCPFPLADHLNSTNHAIVQTLVNSVNSSIPKACCVPTELSAISMLYLDEYDKVVLKNYQEMVVEGCGCR
# Test system: Adipogenic progenitor cells
# Assay: 2D adipogenic differentiation with DMAD components removed or at changed concentration
# Format: cell-based, bovine
# Conditions: single component removed from DMAD
# Protocol: At 90% confluence, proliferated MSCs were trypsinized and seeded in a 96-well collagen coated cell culture plate at 30,000 cells/cm^2 in SF-PM. After 24 hours, adipogenesis was induced by changing SF-PM to DMAD (the serum-free differentiation medium as depicted in Example 1), which was maintained on the cells for a period of 12 days with media changes every 3-4 days. As a control differentiation medium (ctrl), DMEM/F12 with 3% FBS was supplemented with 4 conventional adipogenic inducers (IBMX (Sigma Aldrich-15879; 0.5 mM), dexamethasone (Sigma Aldrich-D4902; 10 μM), rosiglitazone (Sigma Aldrich-R2408; 5 μM) and insulin (Peprotech-10-365; 10 μM)). All 4 inducers were used for the first 3 days of culture and only insulin and rosiglitazone were used for the remaining 9 days.
# Cells were fixed on days 6 and 12 with 4% PFA for 20 minutes at room temperature and washed twice with PBS. Cells were then stained with Hoechst (ThermoFisher 493/503, 1:2000) and BODIPY (Sigma Aldrich 345880, 1:1000) in PBS for 30 minutes. Adipogenic differentiation was quantified using the ImageXPress Pico High Content Analyser (HCA; Molecular devices). The parameters measured were total area of lipid, lipid droplet average area and percentage of positive cells. […]
molecule,measurement,value
B1,effect of removing the component from DMAD on percentage of positive cells and total lipid area,significantly decreased differentiation
